Measured values: patent US20250297002A1 (SHANGHAI SINOBAY BIOTECHNOLOGY, published 2025)

B1: Hu004-101-αCD3-BITE (bispecific antibody)
chain: EVQLVESGGGLVQPGGSLRLSCAASGFTFSGYGMSWVRQAPGKGLEWVATITSGGTYTYYPDSVKGRFTISRDNAKNSLYLQMNSLRAEDTAVYYCARSLAGNAMDYWGQGTLVTVSSGGGGSGGGGSGGGGSQVQLVQSGAEVKKPGASVKVSCKASGYTFTRYTMHWVRQAPGQGLEWMGYINPSRGYTNYNQKFKDRVTITADKSTSTAYMELSSLRSEDTAVYYCARYYDDHYCLDYWGQGTTVTVSSGGGGSGGGGSGGGGSEIVLTQSPATLSLSPGERATLSCSASSSVSYMNWYQQKPGKAPKRLIYDTSKLASGVPSRFSGSGSGTDFTLTINSLEAEDAATYYCQQWSSNPFTFGQGTKVEIKGGGGSGGGGSGGGGSDIQMTQSPSTLSASVGDRVTITCRASQSISNWLAWYQQKPGEAPKLLIYKASNLESGVPSRFSGSGSGTEFTLTISSLQPDDFATYYCQQFGTFGQGTKVEIK
B2: Hu004-68-αCD3-BITE (bispecific antibody)
chain: EVQLVESGGGLVQPGGSLRLSCAASGFTFSGYGMSWVRQAPGKGLEWVATITSGGTYTYYPDSVKGRFTISRDNAKNSLYLQMNSLRAEDTAVYYCARSLAGNAMDYWGQGTLVTVSSGGGGSGGGGSGGGGSQVQLVQSGAEVKKPGASVKVSCKASGYTFTRYTMHWVRQAPGQGLEWMGYINPSRGYTNYNQKFKDRVTITADKSTSTAYMELSSLRSEDTAVYYCARYYDDHYCLDYWGQGTTVTVSSGGGGSGGGGSGGGGSEIVLTQSPATLSLSPGERATLSCSASSSVSYMNWYQQKPGKAPKRLIYDTSKLASGVPSRFSGSGSGTDFTLTINSLEAEDAATYYCQQWSSNPFTFGQGTKVEIKGGGGSGGGGSGGGGSEIVLTQSPVTLSVSPGERATLSCRASQGVTSNLAWYQQKPGQAPRLLIYGASTRATGVPARFSGSGSGTEFTLTISSLQSEDFAVYYCQHRGTFGQGTKVDIK

Molecular target: human CD47 (human, UniProt Q08722 19-323)
Assay: cell-based or functional assay

| Binder | tumor killing activity on NCI-H292 cells with T cells (luciferase), compared with clone No. 100 [fold] | tumor killing activity on NCI-H292 cells with T cells (luciferase), compared with the T cell control group [fold] | tumor killing activity on NCI-H292 cells with T cells (luciferase), compared with the positive control antibody (B6H12-αCD3-BITE) [fold] | tumor killing activity on SK-OV3 cells with T cells (luciferase), compared with clone No. 100 [fold] | tumor killing activity on SK-OV3 cells with T cells (luciferase), compared with the T cell control group [fold] | tumor killing activity on SK-OV3 cells with T cells (luciferase), compared with the positive control antibody (B6H12-αCD3-BITE) [fold] |
| --- | --- | --- | --- | --- | --- | --- |
| B1 | 1.2 | 4 | 1.2 |  |  |  |
| B2 |  |  |  | 2 | 3.5 | 1.5 |
